This data set concerns the molecule itself. The experiment in a line: SEC-MALS; SEC-MALLS at 4 °C; 20 µL of JIP1^SH3 at 5.6 mg mL^-1 injected at 0.5 mL min^-1 on Superdex 200 10/300 GL in 50 mM HEPES pH 7.1, 150 mM NaCl, 2 mM DTT. (In gel filtration, larger molecules generally elute earlier.)

In general, stoichiometry N refers to the number of molecules, sites or subunits per partner or assembly.

B1: JIP1^SH3 (JIP1 IDR residues 1–450 linked to the SH3 domain of JIP1, residues 489–553, via a (GS)3G linker) (domain or fragment)
chain: GHMMAERESGGLGGGAASPPAASPFLGLHIASPPNFRLTHDISLEEFEDEDLSEITDECGISLQCKDTLSLRPPRAGLLSAGGGGAGSRLQAEMLQMDLIDATGDTPGAEDDEEDDDEERAARRPGAGPPKAESGQEPASRGQGQSQGQSQGPGSGDTYRPKRPTTLNLFPQVPRSQDTLNNNSLGKKHSWQDRVSRSSSPLKTGEQTPPHEHICLSDELPPQSGPAPTTDRGTSTDSPCRRSTATQMAPPGGPPAAPPGGRGHSHRDRIHYQADVRLEATEEIYLTPVQRPPDAAEPTSAFLPPTESRMSVSSDPDPAAYPSTAGRPHPSISEEEEGFDCLSSPERAEPPGGGWRGSLGEPPPPPRASLSSDTSALSYDSVKYTLVVDEHAQLELVSLRPCFGDYSDESDSATVYDNCASVSSPYESAIGEEYEEAPRPQPPACLSEDSTPDGSGSGSGQEQTHRAIFRFVPRHEDELELEVDDPLLVELQAEDYWYEAYNMRTGARGVFPAYYAIEVTKEPEH
notes: extension left at the N-terminus after TEV cleavage; (GS)3G linker that replaces residues 451-488 of JIP1; Residues 451-488 of JIP1 replaced by the glycine-serine linker because they are prone to aggregation; also called JIP1^SH3 dimer; not shown: thioredoxin, N-terminal, cleaved; His6, N-terminal, cleaved
For the protein B1, the “stoichiometry N” value amounted to 2.

Values taken from paper PMC12463012, “Sequence‐ and Docking‐Site‐Dependent Contributions to Multi‐Site Phosphorylation of an Intrinsically Disordered MAPK Substrate” (Advanced Science, 2025).
